Our source for the screen value values is article PMC12102759 (2025).

Sequences and labels used below:
B1: AMOTL2 peptide 64-79 (Angiomotin-like protein 2), 16-mer library wild type / TNKS ANK (TNKS 12 ANK repeats, residues 174-649) (parent complex)
chain 1: QVLQQATRQEPQGQEH
chain 2: TGVPAVSGALRELLEACRNGDVSRVKRLVDAANVNAKDMAGRKSSPLHFAAGFGRKDVVEHLLQMGANVHARDDGGLIPLHNACSFGHAEVVSLLLCQGADPNARDNWNYTPLHEAAIKGKIDVCIVLLQHGADPNIRNTDGKSALDLADPSAKAVLTGEYKKDELLEAARSGNEEKLMALLTPLNVNCHASDGRKSTPLHLAAGYNRVRIVQLLLQHGADVHAKDKGGLVPLHNACSYGHYEVTELLLKHGACVNAMDLWQFTPLHEAASKNRVEVCSLLLSHGADPTLVNCHGKSAVDMAPTPELRERLTYEFKGHSLLQAAREADLAKVKKTLALEIINFKQPQSHETALHCAVASLHPKRKQVTELLLRKGANVNEKNKDFMTPLHVAAERAHNDVMEVLHKHGAKMNALDTLGQTALHRAALAGHLQTCRLLLSYGSDPSIISLQGFTAAQMGNEAVQQILSESTPIRTSD

The variants in the experiment derive from B1. The experiment can be described thus: proteomic peptide phage display deep mutational scan (ProP-PD DMS): M13 P8 16-mer library selected against immobilised GST-tagged bait for four days (rounds), NGS of the eluted pools per day and pseudo-replica; bait immobilised on MaxiSorp plates (10 µg), library pre-cleared on GST, 2 h binding at 4 °C, five washes; one round per day, days 1-4; value from days 2 and 3.
As to chain 1 Q4Y, the screen value is 0.00141 average fractional NGS count over selection days 2 and 3 (reads of this peptide / all reads for the bait, averaged over ….

Take chain 1 Q4T: the screen value is 0.0012 average fractional NGS count over selection days 2 and 3 (reads of this peptide / all reads for the bait, averaged over ….

In the case of chain 1 Q4H, the screen value was 0.000314 average fractional NGS count over selection days 2 and 3 (reads of this peptide / all reads for the bait, averaged over …. Turning to chain 1 Q4M, the screen value is 0.000805 average fractional NGS count over selection days 2 and 3 (reads of this peptide / all reads for the bait, averaged over …. On to chain 1 Q4A, for which the screen value was 0.00355 average fractional NGS count over selection days 2 and 3 (reads of this peptide / all reads for the bait, averaged over …. Turning to chain 1 Q9E, the screen value is 0.000877 average fractional NGS count over selection days 2 and 3 (reads of this peptide / all reads for the bait, averaged over ….

In the case of chain 1 Q9Y, the screen value was 0.000466 average fractional NGS count over selection days 2 and 3 (reads of this peptide / all reads for the bait, averaged over ….

chain 1 Q9A: the screen value was 0.00163 average fractional NGS count over selection days 2 and 3 (reads of this peptide / all reads for the bait, averaged over …. Take chain 1 Q9M: the screen value was 0.000331 average fractional NGS count over selection days 2 and 3 (reads of this peptide / all reads for the bait, averaged over ….

For chain 1 Q9P, the screen value is 0.00216 average fractional NGS count over selection days 2 and 3 (reads of this peptide / all reads for the bait, averaged over …. As for chain 1 Q9V, the screen value was 0.000414 average fractional NGS count over selection days 2 and 3 (reads of this peptide / all reads for the bait, averaged over …. Under chain 1 Q9H stands 0.000266 average fractional NGS count over selection days 2 and 3 (reads of this peptide / all reads for the bait, averaged over …; under chain 1 Q9L, 0.000942 average fractional NGS count over selection days 2 and 3 (reads of this peptide / all reads for the bait, averaged over …; under chain 1 Q9W, 0.000813 average fractional NGS count over selection days 2 and 3 (reads of this peptide / all reads for the bait, averaged over ….

As for chain 1 Q9F, the screen value is 0.000243 average fractional NGS count over selection days 2 and 3 (reads of this peptide / all reads for the bait, averaged over …. With chain 1 T7E, the screen value was 0.000563 average fractional NGS count over selection days 2 and 3 (reads of this peptide / all reads for the bait, averaged over …. In the case of chain 1 T7A, the screen value is 0.000494 average fractional NGS count over selection days 2 and 3 (reads of this peptide / all reads for the bait, averaged over …. With chain 1 T7N, the screen value was 0.00127 average fractional NGS count over selection days 2 and 3 (reads of this peptide / all reads for the bait, averaged over ….

Take chain 1 T7M: the screen value was 0.000455 average fractional NGS count over selection days 2 and 3 (reads of this peptide / all reads for the bait, averaged over …. chain 1 T7G: the screen value is 0.00299 average fractional NGS count over selection days 2 and 3 (reads of this peptide / all reads for the bait, averaged over ….

Regarding chain 1 T7W, the screen value is 0.00146 average fractional NGS count over selection days 2 and 3 (reads of this peptide / all reads for the bait, averaged over ….

Consider chain 1 T7P, for which the screen value was 0.000581 average fractional NGS count over selection days 2 and 3 (reads of this peptide / all reads for the bait, averaged over …. For the variant chain 1 T7H, the screen value is 0.00103 average fractional NGS count over selection days 2 and 3 (reads of this peptide / all reads for the bait, averaged over …. With chain 1 T7L the figure was 0.000808 average fractional NGS count over selection days 2 and 3 (reads of this peptide / all reads for the bait, averaged over …; with chain 1 T7I, 0.000358 average fractional NGS count over selection days 2 and 3 (reads of this peptide / all reads for the bait, averaged over …; with chain 1 T7V, 0.00296 average fractional NGS count over selection days 2 and 3 (reads of this peptide / all reads for the bait, averaged over …. Turning to chain 1 T7Y, the screen value is 0.00199 average fractional NGS count over selection days 2 and 3 (reads of this peptide / all reads for the bait, averaged over …. For chain 1 V2R, the screen value was 0.000931 average fractional NGS count over selection days 2 and 3 (reads of this peptide / all reads for the bait, averaged over ….

With chain 1 V2Q, the screen value was 0.000414 average fractional NGS count over selection days 2 and 3 (reads of this peptide / all reads for the bait, averaged over …. For the variant chain 1 V2T, the screen value is 0.00555 average fractional NGS count over selection days 2 and 3 (reads of this peptide / all reads for the bait, averaged over ….

On to chain 1 V2F, for which the screen value was 0.000314 average fractional NGS count over selection days 2 and 3 (reads of this peptide / all reads for the bait, averaged over …. chain 1 V2W: the screen value is 0.00102 average fractional NGS count over selection days 2 and 3 (reads of this peptide / all reads for the bait, averaged over …. chain 1 V2A: the screen value is 0.00302 average fractional NGS count over selection days 2 and 3 (reads of this peptide / all reads for the bait, averaged over …. chain 1 V2N: the screen value was 0.00035 average fractional NGS count over selection days 2 and 3 (reads of this peptide / all reads for the bait, averaged over …. Take chain 1 V2L: the screen value is 0.0017 average fractional NGS count over selection days 2 and 3 (reads of this peptide / all reads for the bait, averaged over …. As for chain 1 V2E, the screen value is 0.00192 average fractional NGS count over selection days 2 and 3 (reads of this peptide / all reads for the bait, averaged over …. As for chain 1 V2I, the screen value was 0.0014 average fractional NGS count over selection days 2 and 3 (reads of this peptide / all reads for the bait, averaged over ….

Consider chain 1 V2Y, for which the screen value was 0.000153 average fractional NGS count over selection days 2 and 3 (reads of this peptide / all reads for the bait, averaged over …. As to chain 1 V2H, the screen value is 0.00146 average fractional NGS count over selection days 2 and 3 (reads of this peptide / all reads for the bait, averaged over ….

On to chain 1 V2S, for which the screen value was 0.000464 average fractional NGS count over selection days 2 and 3 (reads of this peptide / all reads for the bait, averaged over ….

With chain 1 V2P, the screen value was 0.000487 average fractional NGS count over selection days 2 and 3 (reads of this peptide / all reads for the bait, averaged over ….

In the case of chain 1 Q12I, the screen value is 0.00433 average fractional NGS count over selection days 2 and 3 (reads of this peptide / all reads for the bait, averaged over …. Under chain 1 Q12D stands 0.000551 average fractional NGS count over selection days 2 and 3 (reads of this peptide / all reads for the bait, averaged over …; under chain 1 Q12N, 0.000885 average fractional NGS count over selection days 2 and 3 (reads of this peptide / all reads for the bait, averaged over …. With chain 1 Q12G the figure was 0.000392 average fractional NGS count over selection days 2 and 3 (reads of this peptide / all reads for the bait, averaged over ….

As to chain 1 Q12T, the screen value is 0.0005 average fractional NGS count over selection days 2 and 3 (reads of this peptide / all reads for the bait, averaged over …. With chain 1 Q12H the figure was 0.000111 average fractional NGS count over selection days 2 and 3 (reads of this peptide / all reads for the bait, averaged over …. Take chain 1 Q12E: the screen value was 0.000439 average fractional NGS count over selection days 2 and 3 (reads of this peptide / all reads for the bait, averaged over ….

chain 1 Q12M: the screen value is 0.00046 average fractional NGS count over selection days 2 and 3 (reads of this peptide / all reads for the bait, averaged over …. With chain 1 Q12W, the screen value was 0.000556 average fractional NGS count over selection days 2 and 3 (reads of this peptide / all reads for the bait, averaged over …. On to chain 1 Q12Y, for which the screen value is 0.0011 average fractional NGS count over selection days 2 and 3 (reads of this peptide / all reads for the bait, averaged over ….

For chain 1 Q12L, the screen value is 0.00049 average fractional NGS count over selection days 2 and 3 (reads of this peptide / all reads for the bait, averaged over …. With chain 1 Q12S, the screen value was 0.000155 average fractional NGS count over selection days 2 and 3 (reads of this peptide / all reads for the bait, averaged over ….

Turning to chain 1 Q5F, the screen value is 0.00178 average fractional NGS count over selection days 2 and 3 (reads of this peptide / all reads for the bait, averaged over …. For the variant chain 1 Q5A, the screen value was 0.000657 average fractional NGS count over selection days 2 and 3 (reads of this peptide / all reads for the bait, averaged over …. With chain 1 Q5Y, the screen value is 0.000959 average fractional NGS count over selection days 2 and 3 (reads of this peptide / all reads for the bait, averaged over …. With chain 1 Q5T the figure was 0.00669 average fractional NGS count over selection days 2 and 3 (reads of this peptide / all reads for the bait, averaged over …; with chain 1 Q5S, 0.00183 average fractional NGS count over selection days 2 and 3 (reads of this peptide / all reads for the bait, averaged over …. With chain 1 Q5E the figure was 0.000474 average fractional NGS count over selection days 2 and 3 (reads of this peptide / all reads for the bait, averaged over …; with chain 1 Q5L, 0.00018 average fractional NGS count over selection days 2 and 3 (reads of this peptide / all reads for the bait, averaged over …; with chain 1 Q5V, 0.00207 average fractional NGS count over selection days 2 and 3 (reads of this peptide / all reads for the bait, averaged over …. As to chain 1 Q5R, the screen value was 0.000183 average fractional NGS count over selection days 2 and 3 (reads of this peptide / all reads for the bait, averaged over ….

As to chain 1 Q5P, the screen value is 0.000503 average fractional NGS count over selection days 2 and 3 (reads of this peptide / all reads for the bait, averaged over ….

chain 1 Q5M: the screen value is 0.000456 average fractional NGS count over selection days 2 and 3 (reads of this peptide / all reads for the bait, averaged over …. Under chain 1 Q5K stands 0.000455 average fractional NGS count over selection days 2 and 3 (reads of this peptide / all reads for the bait, averaged over …; under chain 1 R8A, 0.000176 average fractional NGS count over selection days 2 and 3 (reads of this peptide / all reads for the bait, averaged over …. As to chain 1 A6W, the screen value was 0.000677 average fractional NGS count over selection days 2 and 3 (reads of this peptide / all reads for the bait, averaged over …. On to chain 1 A6H, for which the screen value is 0.00168 average fractional NGS count over selection days 2 and 3 (reads of this peptide / all reads for the bait, averaged over …. Regarding chain 1 A6N, the screen value is 0.000341 average fractional NGS count over selection days 2 and 3 (reads of this peptide / all reads for the bait, averaged over ….

chain 1 A6R: the screen value was 0.000251 average fractional NGS count over selection days 2 and 3 (reads of this peptide / all reads for the bait, averaged over ….

Consider chain 1 A6I, for which the screen value was 0.000647 average fractional NGS count over selection days 2 and 3 (reads of this peptide / all reads for the bait, averaged over …. As to chain 1 A6V, the screen value was 0.0104 average fractional NGS count over selection days 2 and 3 (reads of this peptide / all reads for the bait, averaged over …. In the case of chain 1 A6S, the screen value was 0.000255 average fractional NGS count over selection days 2 and 3 (reads of this peptide / all reads for the bait, averaged over ….

Turning to chain 1 A6E, the screen value is 0.000304 average fractional NGS count over selection days 2 and 3 (reads of this peptide / all reads for the bait, averaged over …. As for chain 1 A6G, the screen value was 0.000155 average fractional NGS count over selection days 2 and 3 (reads of this peptide / all reads for the bait, averaged over ….
